In paper PMC6911004, “Fragment-based screening identifies molecules targeting the substrate-binding ankyrin repeat domains of tankyrase” (Scientific Reports, 2019) one finds ΔTm data, which are given here for one sequence.

The target in this test is T1, TNKS2 ARC5 (Homo sapiens, UniProt Q9H2K2).
T1 construct: followed by TNKS2 ARC5 (1 μL, 100 μM stock); His6-GST; made in house; host or cells: E. coli
T1 sequence (Q9H2K2 whole entry, looked up): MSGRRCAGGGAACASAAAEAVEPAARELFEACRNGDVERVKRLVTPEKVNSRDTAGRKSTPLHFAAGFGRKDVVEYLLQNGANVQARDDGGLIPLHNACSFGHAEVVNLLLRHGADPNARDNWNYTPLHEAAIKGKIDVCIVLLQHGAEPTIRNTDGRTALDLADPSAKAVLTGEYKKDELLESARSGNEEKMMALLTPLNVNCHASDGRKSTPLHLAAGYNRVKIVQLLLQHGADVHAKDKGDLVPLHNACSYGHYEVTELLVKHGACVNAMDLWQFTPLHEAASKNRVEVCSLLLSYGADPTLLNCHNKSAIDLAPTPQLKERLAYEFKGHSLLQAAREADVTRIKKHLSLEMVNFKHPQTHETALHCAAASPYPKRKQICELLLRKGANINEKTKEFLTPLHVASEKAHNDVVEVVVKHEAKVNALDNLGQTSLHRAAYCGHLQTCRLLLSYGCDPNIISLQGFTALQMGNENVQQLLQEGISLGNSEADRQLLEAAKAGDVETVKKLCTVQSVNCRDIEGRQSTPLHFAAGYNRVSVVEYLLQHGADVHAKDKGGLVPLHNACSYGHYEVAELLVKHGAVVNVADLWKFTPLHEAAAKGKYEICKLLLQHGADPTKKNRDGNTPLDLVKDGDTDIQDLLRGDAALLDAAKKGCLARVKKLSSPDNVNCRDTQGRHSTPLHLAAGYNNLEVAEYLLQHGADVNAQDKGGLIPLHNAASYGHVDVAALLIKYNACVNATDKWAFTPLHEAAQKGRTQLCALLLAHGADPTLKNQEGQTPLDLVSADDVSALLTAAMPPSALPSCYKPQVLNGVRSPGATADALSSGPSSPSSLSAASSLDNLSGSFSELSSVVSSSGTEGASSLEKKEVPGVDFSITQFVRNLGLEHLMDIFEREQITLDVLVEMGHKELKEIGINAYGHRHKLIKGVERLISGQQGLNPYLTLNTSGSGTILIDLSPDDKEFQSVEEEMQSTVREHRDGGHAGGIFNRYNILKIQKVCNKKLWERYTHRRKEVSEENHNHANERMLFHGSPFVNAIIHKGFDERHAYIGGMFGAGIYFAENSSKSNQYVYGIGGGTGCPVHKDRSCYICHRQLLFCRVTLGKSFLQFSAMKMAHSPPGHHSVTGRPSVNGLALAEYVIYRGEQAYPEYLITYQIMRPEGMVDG
As to the kind of experiment: Differential scanning fluorimetry (DSF, thermal shift). Format: binding. To be noted: ARC 20 μM + 3BP2 TBM peptide 200 μM, inflection point method. The method, then: Therefore, we chose TNKS2 ARC5 for screening by DSF, anticipating the largest signal window for measuring changes in Tm upon fragment binding.
We screened 1869 compounds in duplicate at a concentration of 500 μM, which we considered a reasonable compromise between having a sufficiently high concentration to identify weak binders while minimising the likelihood of false positives through fragment precipitation/aggregation and non-specific binding. The final DMSO concentration was 5%. We calculated melting temperatures using both the inflection point and the maximum peak of first derivative data methods. Both methods generally agreed, unless the melt curve was biphasic or misshapen, with slightly lower variability for the […] Tm determination method (see Materials and Methods for experimental and analysis details).
We determined the melting temperature for the unbound ARC (Tm, 0) from the mean of 12 reference melting curves per plate, with 5% DMSO only. We calculated the change in melting temperature (ΔTm) by subtracting the mean Tm, 0 from Tm, compound. We tested compounds in duplicate, defining fragments as hits if they conferred a ΔTm outside two standard deviations (2σ) from the mean, in one or both replicates. To check for consistency between plates, we ran triplicate peptide controls; however, we excluded peptide ΔTm values from the calculation of the mean ΔTm to avoid skewing the results. We observed mean ΔTm values (IP/1st derivative methods) of −0.127/−0.331 °C and σ as 0.997/1.19 °C. A hit cut-off of 2σ gave absolute shifts of +1.87/+2.05 °C for compounds that stabilised and −2.13/−2.71 °C for compounds that destabilised the ARC (Fig. 2B).
For the screen, a C1000 thermal cycler (Bio-Rad) was used to record melt curves. SYPRO Orange was purchased as a 5000 × stock in DMSO from Sigma Aldrich. The ICR fragment library was available as 100 mM stocks in DMSO, and dispensed (25 nL) using an ECHO acoustic liquid handling system into white 384-well PCR plates (Framestar, 4titude). Wells were backfilled with DMSO (225 nL). Buffer (2.75 μL, 25 mM HEPES-NaOH pH 7.5, 100 mM NaCl, 2 mM TCEP) was added, followed by TNKS2 ARC5 (1 μL, 100 μM stock) and then SYPRO orange dye (1 μL, 25×). The plate was centrifuged after the addition of each reagent (1 min, 1000 × g). Final assay concentrations were as follows: TNKS2 ARC5 (20 μM); fragment (500 μM); SYPRO Orange dye (5×); DMSO (5% v/v) in a total volume of 5 μL. Peptide control wells (3BP2 TBM 16-mer, 200 μM, sequence LPHLQRSPPDGQSFRSW with C-terminal tryptophan added for photometric concentration measurements, the N-terminus acetylated and the C-terminus amide-capped) were plated in triplicate, and there were 12 blank wells per plate, with DMSO only (250 nL, 5% v/v). Melt curves were recorded from 20–95 °C, with the temperature ramped by 0.5 °C every 15 s. Data were analysed using Vortex (Dotmatics) software and melting temperatures calculated from both the inflection point and the maximum peak of 1st-derivative data. Data points were excluded if the melt curve was poor, i.e., if there was no fluorescence signal above baseline, high fluorescence intensity throughout, or if the melt curve was shallow (<1000 rfu difference between baseline and peak maximum). The unbound melting temperature was determined from the mean of 12 reference melting curves, with 5% DMSO only. The change in melting temperature (ΔTm) was calculated by subtracting the mean Tm, 0 from Tm, compound. Compounds were tested in duplicate, and fragments were defined as hits if they gave a ΔTm outwith 2 σ from the mean in one or both replicates.
For the experiment shown in Fig. 2A, ARC and 3BP2 TBM peptide concentrations were 20 and 200 μM, respectively, in 50 mM HEPES-NaOH pH 7.5, 100 mM NaCl, 2 mM TCEP and a total volume of 25 μL. SYPRO Orange was added at 5×. Data were recorded from 4–95 °C, with the temperature ramped by 0.5 °C every 15 s, using a CFX384 thermal cycler (Bio-Rad). […]

With “LPHLQRSPPDGQSFRSW [3BP2 16-mer peptide, 16-mer TBM peptide derived from 3BP2, W added for A280, N-terminus acetylated, C-terminus amide-capped; positive control, reference compound]”, the ΔTm worked out at 4.14 °C.
